The results in this text go back to publication PMC10661027, “Tuning Plant Promoters Using a Simple Split Luciferase Method to Assess Transcription Factor-DNA Interactions”.

In data set [1] the target is T1, AtTGA1:HiBiT (Arabidopsis thaliana, UniProt Q39237 1-368).
T1 sequence: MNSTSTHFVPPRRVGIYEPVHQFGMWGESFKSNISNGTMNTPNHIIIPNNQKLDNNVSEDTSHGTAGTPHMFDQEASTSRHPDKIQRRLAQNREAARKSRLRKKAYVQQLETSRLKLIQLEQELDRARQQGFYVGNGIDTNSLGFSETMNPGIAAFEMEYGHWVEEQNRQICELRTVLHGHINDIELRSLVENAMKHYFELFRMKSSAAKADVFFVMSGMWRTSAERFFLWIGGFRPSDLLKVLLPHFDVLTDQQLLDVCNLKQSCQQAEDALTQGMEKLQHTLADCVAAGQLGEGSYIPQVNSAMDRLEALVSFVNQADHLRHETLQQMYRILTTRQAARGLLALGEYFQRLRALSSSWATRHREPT
Briefly: qTFD (HiBiT luminescence microplate, relative to rnd); qTFD: 25 mM Tris-HCl pH 8.0, 100 mM KCl, 2 mM DTT, 1 mM EDTA, 0.1% BSA, 500 ng poly(dI-dC), 5% glycerol, 0.05% IGEPAL CA630, 1.5-50 nM protein, 1-3 h, room temperature; EMSA as in cited earlier work. To be noted: protein: recombinant; tags: C-terminal HiBiT (VSGWRLFKKIS); pH9GW vector, Ni-NTA purified; chain copies: 2; label: none; blunt. (In general: In EMSA bound probe runs differently from free probe, usually more slowly.)

Data set [2] has as its target T1, AtTGA1:HiBiT. Description: EMSA; 1.5-15 nM protein; reduced by unlabelled competitor; qTFD: 25 mM Tris-HCl pH 8.0, 100 mM KCl, 2 mM DTT, 1 mM EDTA, 0.1% BSA, 500 ng poly(dI-dC), 5% glycerol, 0.05% IGEPAL CA630, 1.5-50 nM protein, 1-3 h, room temperature; EMSA as in cited earlier work. To be noted: protein: recombinant; tags: C-terminal HiBiT (VSGWRLFKKIS); pH9GW vector, Ni-NTA purified; chain copies: 2; label: Cy5 (primers); blunt.

Data set [3] addresses T1, AtTGA1:HiBiT. Briefly: qTFD (HiBiT luminescence microplate, relative to rnd); strong rQ; qTFD: 25 mM Tris-HCl pH 8.0, 100 mM KCl, 2 mM DTT, 1 mM EDTA, 0.1% BSA, 500 ng poly(dI-dC), 5% glycerol, 0.05% IGEPAL CA630, 1.5-50 nM protein, 1-3 h, room temperature; EMSA as in cited earlier work. To be noted: protein: recombinant; tags: C-terminal HiBiT (VSGWRLFKKIS); pH9GW vector, Ni-NTA purified; chain copies: 2; label: none; blunt.

B1: CaMV35s as1 (dsDNA)
DNA 1: ATGAAGACGCTGGGTTTACATGGGAATGGCTGACGTAAGGGATGACGCACATGCTTCTGTTCTAACAGGCTAGGATATAA
DNA 2: TTATATCCTAGCCTGTTAGAACAGAAGCATGTGCGTCATCCCTTACGTCAGCCATTCCCATGTAAACCCAGCGTCTTCAT
Take B1: the binding result with AtTGA1:HiBiT [1] is “binds”.

B2: CaMV35s as1 80 bp Cy5 EMSA probe (dsDNA)
DNA 1: B1 DNA 1
DNA 2: B1 DNA 2
Turning to B2, the binding result with AtTGA1:HiBiT [2] is given as “binds”.

B3: TFBS_02 (dsDNA)
DNA 1: TAGCGAAGTACGATCCCGGACCGCTACATTCCAAATAGTCTGACGTAAGCAATGACAAAACTCACCTACATGGCCATCACGCAGTA
DNA 2: TACTGCGTGATGGCCATGTAGGTGAGTTTTGTCATTGCTTACGTCAGACTATTTGGAATGTAGCGGTCCGGGATCGTACTTCGCTA
Turning to B3, the binding result in the data set with AtTGA1:HiBiT [3] is on record as “binds”.
